# Results published in IntAct's records for PubMed 23273425.
# B1: Splicing factor 1 (Homo sapiens), Q15637 (parent)
# chain: MATGANATPLDFPSKKRKRSRWNQDTMEQKTVIPGMPTVIPPGLTREQERAYIVQLQIEDLTRKLRTGDLGIPPNPEDRSPSPEPIYNSEGKRLNTREFRTRKKLEEERHNLITEMVALNPDFKPPADYKPPATRVSDKVMIPQDEYPEINFVGLLIGPRGNTLKNIEKECNAKIMIRGKGSVKEGKVGRKDGQMLPGEDEPLHALVTANTMENVKKAVEQIRNILKQGIETPEDQNDLRKMQLRELARLNGTLREDDNRILRPWQSSETRSITNTTVCTKCGGAGHIASDCKFQRPGDPQSAQDKARMDKEYLSLMAELGEAPVPASVGSTSGPATTPLASAPRPAAPANNPPPPSLMSTTQSRPPWMNSGPSESRPYHGMHGGGPGGPGGGPHSFPHPLPSLTGGHGGHPMQHNPNGPPPPWMQPPPPPMNQGPHPPGHHGPPPMDQYLGSTPVGSGVYRLHQGKGMMPPPPMGMMPPPPPPPSGQPPPPPSGPLPPWQQQQQQPPPPPPPSSSMASSTPLPWQQNTTTTTTSAGTGSIPPWQQQQAAAAASPGAPQMQGNPTMVPLPPGVQPPLPPGAPPPPPPPPPGSAGMMYAPPPPPPPPMDPSNFVTMMGMGVAGMPPFGMPPAPPPPPPQN
# Variants of: B1
# Conditions: with U2AF2, P26368
# Chain of U2AF2, P26368 (P26368 whole entry): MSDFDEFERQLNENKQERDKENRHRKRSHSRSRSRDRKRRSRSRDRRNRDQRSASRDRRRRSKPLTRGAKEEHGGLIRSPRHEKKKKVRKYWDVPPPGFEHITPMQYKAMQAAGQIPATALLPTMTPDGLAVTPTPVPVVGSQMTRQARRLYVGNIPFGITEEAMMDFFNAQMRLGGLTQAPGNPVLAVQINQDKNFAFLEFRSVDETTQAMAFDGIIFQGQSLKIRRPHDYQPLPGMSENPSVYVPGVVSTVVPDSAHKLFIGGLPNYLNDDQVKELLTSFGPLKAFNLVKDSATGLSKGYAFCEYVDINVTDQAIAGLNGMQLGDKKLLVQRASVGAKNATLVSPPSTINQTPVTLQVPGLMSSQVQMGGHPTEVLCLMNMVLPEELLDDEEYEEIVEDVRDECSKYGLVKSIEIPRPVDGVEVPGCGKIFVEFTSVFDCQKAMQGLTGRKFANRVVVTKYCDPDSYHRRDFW
row,effect of a mutation on the interaction,Variant
1,decreasing interaction strength,S80A;S82A
2,decreasing interaction strength,R46D
3,decreasing interaction strength,R93E;R97E;R100E

# More lines, now with the values behind:
row,Variant,effect of a mutation on the interaction
1,I40R;I53R,decreasing interaction strength
2,W22A,disrupting interaction strength
